Experimental findings from the supplement of paper PMC5998384 are described below.

In data set [1] the test system is HeLa Kyoto. Nature of the data set: thermal stability score vs G1/S (z-score of summed log2 fold changes over temperatures); higher = more thermally stable than in G1/S.
Data set [2] deals with HeLa Kyoto. Nature of the data set: solubility in G1/S (NP-40 vs SDS abundance) (log2 ratio); higher = more soluble. The note with it: cell cycle stage: G1/S.
For data set [3], the system named is HeLa Kyoto. Nature of the data set: melting temperature (median over replicates), in situ; higher = more thermally stable.
For data set [4], the system named is HeLa Kyoto. As to the kind of experiment: solubility change mitosis vs G1/S (difference of NP-40 vs SDS log2 ratios) (log2 ratio difference); higher = more soluble in mitosis.
Where [5] appears, read: cell cycle stage: early G1 (4.5 h after nocodazole release).
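Wherever melting temperature (median over replicates), in situ is given: HeLa Kyoto cells synchronized by double thymidine or nocodazole block, proteins quantified by TMT10plex mass spectrometry, three independent biological replicates.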
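Wherever solubility change mitosis vs G1/S (difference of NP-40 vs SDS log2 ratios) is given: synchronized HeLa Kyoto cells (double thymidine block for G1/S, nocodazole release for mitosis), protein amounts in NP-40 versus SDS lysates quantified by mass spectrometry, three biological replicates.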
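Wherever solubility in G1/S (NP-40 vs SDS abundance) is given: HeLa Kyoto cells arrested at G1/S by double thymidine block, proteins quantified by TMT10plex mass spectrometry in mild NP-40 versus SDS extracts, three biological replicates.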
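Wherever thermal stability score vs G1/S (z-score of summed log2 fold changes over temperatures) is given: synchronized HeLa Kyoto cells, proteins quantified by TMT10plex mass spectrometry, three biological replicates, mitosis taken 0.5 h after nocodazole release, G1/S directly after double thymidine block.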

For “MASDEGKLFVGGLSFDTNEQSLEQVFSKYGQISEVVVVKDRETQRSRGFGFVTFENIDDAKDAMMAMNGKSVDGRQIRVDQAGKSSDNRSRGYRGGSAGGRGFFRGGRGRGRGFSRGGGDRGYGGNRFESRSGGYGGSRDYYSSRSQSGGYSDRSSGGSYRDSYDSYATHNE [CIRBP]”, the thermal stability score in data set [1] (setting [5]) is -0.492; in data set [1] (cell cycle stage: mitosis), -2.78. For the same sequence, the “solubility in G1/S (log2)” value in data set [2] was -0.000215. In addition, the melting temperature in data set [3] (cell cycle stage: G1/S) stood at 52.8 °C; in data set [3] (cell cycle stage: mitosis) it was 53 °C. In addition, the “solubility change mitosis (log2)” value in data set [4] was 0.112.

Regarding “MASEDIAKLAETLAKTQVAGGQLSFKGKSLKLNTAEDAKDVIKEIEDFDSLEALRLEGNTVGVEAARVIAKALEKKSELKRCHWSDMFTGRLRTEIPPALISLGEGLITAGAQLVELDLSDNAFGPDGVQGFEALLKSSACFTLQELKLNNCGMGIGGGKILAAALTECHRKSSAQGKPLALKVFVAGRNRLENDGATALAEAFRVIGTLEEVHMPQNGINHPGITALAQAFAVNPLLRVINLNDNTFTEKGAVAMAETLKTLRQVEVINFGDCLVRSKGAVAIADAIRGGLPKLKELNLSFCEIKRDAALAVAEAMADKAELEKLDLNGNTLGEEGCEQLQEVLEGFNMAKVLASLSDDEDEEEEEEGEEEEEEAEEEEEEDEEEEEEEEEEEEEEPQQRGQGEKSATPSRKILDPNTGEPAPVLSSPPPADVSTFLAFPSPEKLLRLGPKSSVLIAQQTDTSDPEKVVSAFLKVSSVFKDEATVRMAVQDAVDALMQKAFNSSSFNSNTFLTRLLVHMGLLKSEDKVKAIANLYGPLMALNHMVQQDYFPKALAPLLLAFVTKPNSALESCSFARHSLLQTLYKV [RANGAP1]”, the thermal stability score is 0.55 in data set [1] (setting [5]) and 2.63 in data set [1] (cell cycle stage: mitosis). For the same sequence, the “solubility in G1/S (log2)” value in data set [2] was 0.166. Besides, the melting temperature in data set [3] (cell cycle stage: G1/S) stood at 48.6 °C; in data set [3] (cell cycle stage: mitosis), 49 °C. Moreover, the “solubility change mitosis (log2)” value in data set [4] came out at 0.199.

Consider “MASEELQKDLEEVKVLLEKATRKRVRDALTAEKSKIETEIKNKMQQKSQKKAELLDNEKPAAVVAPITTGYTVKISNYGWDQSDKFVKIYITLTGVHQVPTENVQVHFTERSFDLLVKNLNGKSYSMIVNNLLKPISVEGSSKKVKTDTVLILCRKKVENTRWDYLTQVEKECKEKEKPSYDTETDPSEGLMNVLKKIYEDGDDDMKRTINKAWVESREKQAKGDTEF [CACYBP]”, for which the thermal stability score in data set [1] (setting [5]) is 0.00133; in data set [1] (cell cycle stage: mitosis), -1.11. Also, in data set [2], the “solubility in G1/S (log2)” value was 0.412. Also, the melting temperature in data set [3] (cell cycle stage: G1/S) and in data set [3] (cell cycle stage: mitosis) was 52.2 °C throughout. In addition, the “solubility change mitosis (log2)” value in data set [4] was -0.0888.

Turning to “MASEQDVRARLQRAGQEHLLRFWAELAPEPRAALLAELALLEPEALREHCRRAAEACARPHGPPPDLAARLRPLPPERVGRASRSDPETRRRWEEEGFRQISLNKVAVLLLAGGQGTRLGVTYPKGMYRVGLPSRKTLYQLQAERIRRVEQLAGERHGTRCTVPWYVMTSEFTLGPTAEFFREHNFFHLDPANVVMFEQRLLPAVTFDGKVILERKDKVAMAPDGNGGLYCALEDHKILEDMERRGVEFVHVYCVDNILVRLADPVFIGFCVLQGADCGAKVVEKAYPEEPVGVVCQVDGVPQVVEYSEISPETAQLRASDGSLLYNAGNICNHFFTRGFLKAVTREFEPLLKPHVAVKKVPYVDEEGNLVKPLKPNGIKMEKFVFDVFRFAKNFAALEVLREEEFSPLKNAEPADRDSPRTARQALLTQHYRWALRAGARFLDAHGAWLPELPSLPPNGDPPAICEISPLVSYSGEGLEVYLQGREFQSPLILDEDQAREPQLQES [UAP1L1]”, the results for the thermal stability score in data set [1] (setting [5]) and in data set [1] (cell cycle stage: mitosis) were -0.582 and -0.781, respectively. Further, the “solubility in G1/S (log2)” value in data set [2] was 0.127. Further, the melting temperature in data set [3] (cell cycle stage: G1/S) is 52.3 °C; in data set [3] (cell cycle stage: mitosis), 53.1 °C. Also, in data set [4], the “solubility change mitosis (log2)” value is -0.0981.

As for “MASERLPNRPACLLVASGAAEGVSAQSFLHCFTMASTAFNLQVATPGGKAMEFVDVTESNARWVQDFRLKAYASPAKLESIDGARYHALLIPSCPGALTDLASSGSLARILQHFHSESKPICAVGHGVAALCCATNEDRSWVFDSYSLTGPSVCELVRAPGFARLPLVVEDFVKDSGACFSASEPDAVHVVLDRHLVTGQNASSTVPAVQNLLFLCGSRK [PDDC1]”, the thermal stability score was -1.01 in data set [1] (setting [5]) and -0.729 in data set [1] (cell cycle stage: mitosis). Besides, in data set [2], the “solubility in G1/S (log2)” value is 0.169. The melting temperature in data set [3] (cell cycle stage: G1/S) is 55 °C; in data set [3] (cell cycle stage: mitosis) it was 55.4 °C. The “solubility change mitosis (log2)” value in data set [4] was -0.0189.

For “MASGAYNPYIEIIEQPRQRGMRFRYKCEGRSAGSIPGEHSTDNNRTYPSIQIMNYYGKGKVRITLVTKNDPYKPHPHDLVGKDCRDGYYEAEFGQERRPLFFQNLGIRCVKKKEVKEAIITRIKAGINPFNVPEKQLNDIEDCDLNVVRLCFQVFLPDEHGNLTTALPPVVSNPIYDNRAPNTAELRICRVNKNCGSVRGGDEIFLLCDKVQKDDIEVRFVLNDWEAKGIFSQADVHRQVAIVFKTPPYCKAITEPVTVKMQLRRPSDQEVSESMDFRYLPDEKDTYGNKAKKQKTTLLFQKLCQDHVETGFRHVDQDGLELLTSGDPPTLASQSAGITVNFPERPRPGLLGSIGEGRYFKKEPNLFSHDAVVREMPTGVSSQAESYYPSPGPISSGLSHHASMAPLPSSSWSSVAHPTPRSGNTNPLSSFSTRTLPSNSQGIPPFLRIPVGNDLNASNACIYNNADDIVGMEASSMPSADLYGISDPNMLSNCSVNMMTTSSDSMGETDNPRLLSMNLENPSCNSVLDPRDLRQLHQMSSSSMSAGANSNTTVFVSQSDAFEGSDFSCADNSMINESGPSNSTNPNSHGFVQDSQYSGIGSMQNEQLSDSFPYEFFQV [REL]”, the figures for the thermal stability score in data set [1] (setting [5]) and in data set [1] (cell cycle stage: mitosis) were -0.962 and -0.219, respectively. The “solubility in G1/S (log2)” value in data set [2] was -0.0913. Moreover, the melting temperature was 49.5 °C in data set [3] (cell cycle stage: G1/S) and 50.5 °C in data set [3] (cell cycle stage: mitosis). Further, in data set [4], the “solubility change mitosis (log2)” value is -0.0913.

On to “MASGNARIGKPAPDFKATAVVDGAFKEVKLSDYKGKYVVLFFYPLDFTFVCPTEIIAFSNRAEDFRKLGCEVLGVSVDSQFTHLAWINTPRKEGGLGPLNIPLLADVTRRLSEDYGVLKTDEGIAYRGLFIIDGKGVLRQITVNDLPVGRSVDEALRLVQAFQYTDEHGEVCPAGWKPGSDTIKPNVDDSKEYFSKHN [PRDX2]”, for which the thermal stability score is -3.24 in data set [1] (setting [5]) and -3.32 in data set [1] (cell cycle stage: mitosis). In addition, the “solubility in G1/S (log2)” value in data set [2] is 0.354. In addition, the melting temperature turned out to be 55 °C in data set [3] (cell cycle stage: G1/S) and 55.1 °C in data set [3] (cell cycle stage: mitosis). In addition, the “solubility change mitosis (log2)” value in data set [4] is 0.0464.
